According to paper PMC10208892 (The Journal of Biological Chemistry, 2023):

Legend:
[1] = target: T1, VPS33B with C-terminal biotinylation signal (human, UniProt Q9H267 1-617, biotin on lysine 41 of the biotinylation signal); experiment: co-IP
T1 sequence: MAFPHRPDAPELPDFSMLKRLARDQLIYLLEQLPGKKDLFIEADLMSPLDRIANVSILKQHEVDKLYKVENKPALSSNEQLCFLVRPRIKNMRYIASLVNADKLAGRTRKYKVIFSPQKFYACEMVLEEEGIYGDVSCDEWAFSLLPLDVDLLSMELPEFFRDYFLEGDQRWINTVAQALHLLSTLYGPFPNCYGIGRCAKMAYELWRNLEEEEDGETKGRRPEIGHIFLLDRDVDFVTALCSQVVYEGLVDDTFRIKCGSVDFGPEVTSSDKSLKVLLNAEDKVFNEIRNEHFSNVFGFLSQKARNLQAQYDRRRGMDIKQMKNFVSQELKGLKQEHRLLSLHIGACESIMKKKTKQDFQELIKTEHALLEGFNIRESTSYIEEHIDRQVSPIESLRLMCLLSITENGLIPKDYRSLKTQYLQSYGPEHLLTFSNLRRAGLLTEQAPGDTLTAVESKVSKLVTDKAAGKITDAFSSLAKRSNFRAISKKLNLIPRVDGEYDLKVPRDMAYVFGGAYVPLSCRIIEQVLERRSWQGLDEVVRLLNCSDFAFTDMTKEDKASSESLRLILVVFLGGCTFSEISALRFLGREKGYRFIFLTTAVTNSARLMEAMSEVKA

VPS33B S243F = target: T2, VPS33B S243F (human, UniProt Q9H267 1-617, S243F); experiment: co-IP
T2 sequence: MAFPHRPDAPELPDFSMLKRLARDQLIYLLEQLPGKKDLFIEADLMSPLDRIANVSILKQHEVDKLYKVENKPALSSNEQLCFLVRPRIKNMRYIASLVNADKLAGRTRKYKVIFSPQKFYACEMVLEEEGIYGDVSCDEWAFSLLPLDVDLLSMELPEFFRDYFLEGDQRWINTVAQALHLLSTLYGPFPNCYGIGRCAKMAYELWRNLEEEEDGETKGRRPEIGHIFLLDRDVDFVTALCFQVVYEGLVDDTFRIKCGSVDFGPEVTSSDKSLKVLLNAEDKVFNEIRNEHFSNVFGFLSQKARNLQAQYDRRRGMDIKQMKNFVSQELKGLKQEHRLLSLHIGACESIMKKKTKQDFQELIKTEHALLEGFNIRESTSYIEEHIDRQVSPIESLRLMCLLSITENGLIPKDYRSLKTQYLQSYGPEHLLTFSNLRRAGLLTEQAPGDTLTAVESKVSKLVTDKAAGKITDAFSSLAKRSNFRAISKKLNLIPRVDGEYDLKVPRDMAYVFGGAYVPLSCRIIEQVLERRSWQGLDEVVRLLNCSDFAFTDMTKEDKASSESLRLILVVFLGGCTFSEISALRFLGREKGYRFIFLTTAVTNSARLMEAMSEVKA

VPS33B H344D = target: T3, VPS33B H344D (human, UniProt Q9H267 1-617, H344D); experiment: co-IP
T3 sequence: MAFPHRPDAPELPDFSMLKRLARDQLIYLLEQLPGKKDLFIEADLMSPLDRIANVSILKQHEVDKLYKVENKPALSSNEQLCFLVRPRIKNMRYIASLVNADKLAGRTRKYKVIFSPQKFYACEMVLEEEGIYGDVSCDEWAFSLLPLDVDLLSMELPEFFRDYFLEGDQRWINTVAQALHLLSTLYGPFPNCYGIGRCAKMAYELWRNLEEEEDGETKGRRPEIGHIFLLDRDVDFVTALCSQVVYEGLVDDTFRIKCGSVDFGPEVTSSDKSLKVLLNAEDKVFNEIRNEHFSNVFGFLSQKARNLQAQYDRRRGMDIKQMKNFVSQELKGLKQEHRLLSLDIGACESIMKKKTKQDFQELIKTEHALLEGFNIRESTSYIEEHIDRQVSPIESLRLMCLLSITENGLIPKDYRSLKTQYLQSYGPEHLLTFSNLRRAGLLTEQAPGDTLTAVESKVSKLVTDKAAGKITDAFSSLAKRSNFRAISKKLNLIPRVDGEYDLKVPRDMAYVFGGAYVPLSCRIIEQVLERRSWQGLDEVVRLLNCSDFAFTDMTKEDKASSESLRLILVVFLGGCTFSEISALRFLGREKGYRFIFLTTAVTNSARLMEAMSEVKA

[2] = target: T4, VPS33B, untagged, expressed in yeast (human, UniProt Q9H267 1-617); experiment: native gel or EMSA
T4 sequence: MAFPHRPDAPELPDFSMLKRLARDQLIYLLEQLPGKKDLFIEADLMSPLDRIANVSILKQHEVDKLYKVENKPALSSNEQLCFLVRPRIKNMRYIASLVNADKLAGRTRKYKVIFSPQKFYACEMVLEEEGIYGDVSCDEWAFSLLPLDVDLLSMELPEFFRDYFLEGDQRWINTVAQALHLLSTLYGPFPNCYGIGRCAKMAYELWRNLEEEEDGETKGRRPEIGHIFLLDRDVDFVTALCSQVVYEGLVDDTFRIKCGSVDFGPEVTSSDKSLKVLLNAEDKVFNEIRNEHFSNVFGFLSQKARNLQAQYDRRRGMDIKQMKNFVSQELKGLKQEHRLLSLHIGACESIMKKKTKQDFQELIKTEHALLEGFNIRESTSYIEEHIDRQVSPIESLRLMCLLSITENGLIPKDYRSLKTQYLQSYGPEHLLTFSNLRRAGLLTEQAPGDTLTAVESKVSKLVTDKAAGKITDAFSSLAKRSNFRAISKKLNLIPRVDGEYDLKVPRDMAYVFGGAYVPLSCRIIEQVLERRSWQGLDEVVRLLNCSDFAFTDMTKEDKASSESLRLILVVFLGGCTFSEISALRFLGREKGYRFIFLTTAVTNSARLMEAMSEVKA

[3] = target: T5, HA-VPS33B, expressed in yeast (human, UniProt Q9H267 1-617); experiment: co-IP
T5 sequence: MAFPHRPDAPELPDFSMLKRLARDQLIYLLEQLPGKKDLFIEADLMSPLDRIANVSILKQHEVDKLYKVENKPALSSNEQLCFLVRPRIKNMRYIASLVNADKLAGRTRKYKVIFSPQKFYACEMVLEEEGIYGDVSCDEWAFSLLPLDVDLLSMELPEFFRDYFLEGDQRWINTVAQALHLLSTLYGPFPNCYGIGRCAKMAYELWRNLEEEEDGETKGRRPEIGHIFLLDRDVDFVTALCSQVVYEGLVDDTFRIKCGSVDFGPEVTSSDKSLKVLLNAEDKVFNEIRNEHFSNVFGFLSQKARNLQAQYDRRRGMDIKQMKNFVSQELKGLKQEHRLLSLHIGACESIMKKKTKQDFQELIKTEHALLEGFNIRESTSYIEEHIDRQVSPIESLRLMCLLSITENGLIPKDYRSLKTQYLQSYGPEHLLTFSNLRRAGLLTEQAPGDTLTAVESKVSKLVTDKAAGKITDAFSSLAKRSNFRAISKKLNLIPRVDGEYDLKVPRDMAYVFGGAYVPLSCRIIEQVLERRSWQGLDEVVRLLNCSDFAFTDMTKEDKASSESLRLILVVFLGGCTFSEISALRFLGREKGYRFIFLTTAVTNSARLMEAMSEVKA

[4] = target: T4, VPS33B, untagged, expressed in yeast; experiment: co-IP

B1: VPS16B-3xFLAG, expressed in yeast (natural protein)
chain: MNRTKGDEEEYWNSSKFKAFTFDDEDDELSQLKESKRAVNSLRDFVDDDDDDDLERVSWSGEPVGSISWSIRETAGNSGSTHEGREQLKSRNSFSSYAQLPKPTSTYSLSSFFRGRTRPGSFQSLSDALSDTPAKSYAPELGRPKGEYRDYSNDWSPSDTVRRLRKGKVCSLERFRSLQDKLQLLEEAVSMHDGNVITAVLIFLKRTLSKEILFRELEVRQVALRHLIHFLKEIGDQKLLLDLFRFLDRTEELALSHYREHLNIQDPDKRKEFLKTCVGLPFSAEDSAHIQDHYTLLERQIIIEANDRHLESAGQTEIFRKHPRKASILNMPLVTTLFYSCFYHYTEAEGTFSSPVNLKKTFKIPDKQYVLTALAARAKLRAWNDVDALFTTKNWLGYTKKRAPIGFHRVVEILHKNNAPVQILQEYVNLVEDVDTKLNLATKFKCHDVVIDTYRDLKDRQQLLAYRSKVDKGSAEEEKIDALLSSSQIRWKN
- binding result [1]: binds
- binding result (VPS33B S243F): binds
- binding result (VPS33B H344D): binds
- binding result [2]: binds

B2: HA-VPS16B-3xFLAG, expressed in yeast (natural protein)
chain: MNRTKGDEEEYWNSSKFKAFTFDDEDDELSQLKESKRAVNSLRDFVDDDDDDDLERVSWSGEPVGSISWSIRETAGNSGSTHEGREQLKSRNSFSSYAQLPKPTSTYSLSSFFRGRTRPGSFQSLSDALSDTPAKSYAPELGRPKGEYRDYSNDWSPSDTVRRLRKGKVCSLERFRSLQDKLQLLEEAVSMHDGNVITAVLIFLKRTLSKEILFRELEVRQVALRHLIHFLKEIGDQKLLLDLFRFLDRTEELALSHYREHLNIQDPDKRKEFLKTCVGLPFSAEDSAHIQDHYTLLERQIIIEANDRHLESAGQTEIFRKHPRKASILNMPLVTTLFYSCFYHYTEAEGTFSSPVNLKKTFKIPDKQYVLTALAARAKLRAWNDVDALFTTKNWLGYTKKRAPIGFHRVVEILHKNNAPVQILQEYVNLVEDVDTKLNLATKFKCHDVVIDTYRDLKDRQQLLAYRSKVDKGSAEEEKIDALLSSSQIRWKN
- binding result [3]: binds

B3: VPS16B(143–316)-3xFLAG (domain or fragment)
chain: RPKGEYRDYSNDWSPSDTVRRLRKGKVCSLERFRSLQDKLQLLEEAVSMHDGNVITAVLIFLKRTLSKEILFRELEVRQVALRHLIHFLKEIGDQKLLLDLFRFLDRTEELALSHYREHLNIQDPDKRKEFLKTCVGLPFSAEDSAHIQDHYTLLERQIIIEANDRHLESAGQT
- binding result [4]: binds

B4: VPS16B(143–493)-3xFLAG (domain or fragment)
chain: RPKGEYRDYSNDWSPSDTVRRLRKGKVCSLERFRSLQDKLQLLEEAVSMHDGNVITAVLIFLKRTLSKEILFRELEVRQVALRHLIHFLKEIGDQKLLLDLFRFLDRTEELALSHYREHLNIQDPDKRKEFLKTCVGLPFSAEDSAHIQDHYTLLERQIIIEANDRHLESAGQTEIFRKHPRKASILNMPLVTTLFYSCFYHYTEAEGTFSSPVNLKKTFKIPDKQYVLTALAARAKLRAWNDVDALFTTKNWLGYTKKRAPIGFHRVVEILHKNNAPVQILQEYVNLVEDVDTKLNLATKFKCHDVVIDTYRDLKDRQQLLAYRSKVDKGSAEEEKIDALLSSSQIRWKN
- binding result [4]: binds
